In patent US20050032245A1 (Harvard, published 2005):
Oregon Green 514 = pentafluorofluorescein derivative

T1: MBP-UL42Δ340 (truncated UL42 processivity subunit of HSV DNA polymerase as maltose binding protein fusion) (herpes simplex virus, UniProt P10226 1-339, N-terminal MBP fusion, not carried in the letters)
T1 construct: Expressed in E. coli BL21(de3)pLysS and purified over amylose; also called wt UL42; HSV MBP-UL42
T1 sequence: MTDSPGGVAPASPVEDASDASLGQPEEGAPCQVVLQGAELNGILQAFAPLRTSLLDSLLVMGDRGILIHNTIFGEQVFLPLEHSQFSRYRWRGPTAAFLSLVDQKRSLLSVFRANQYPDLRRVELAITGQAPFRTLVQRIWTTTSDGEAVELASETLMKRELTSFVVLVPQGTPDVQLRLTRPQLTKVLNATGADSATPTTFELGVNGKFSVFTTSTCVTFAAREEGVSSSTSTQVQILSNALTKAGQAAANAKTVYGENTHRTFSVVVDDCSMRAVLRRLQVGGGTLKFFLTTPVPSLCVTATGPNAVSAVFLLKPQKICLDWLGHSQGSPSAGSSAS

B1: peptide A (36-mer derived from the C-terminus of HSV Pol) (peptide)
peptide: DDVAARLRTAGFGAVGAGATAEETRRMLHRAFDTLA
notes: also called 36-mer peptide A; unlabeled peptide A
B2: Oregon Green 514-labeled peptide E (18 C-terminal amino acids of HSV Pol) (peptide)
peptide: {Oregon Green 514}-ATAEETRRMLHRAFDTLA-NH2
notes: also called Oregon Green-peptide E; labeled tracer

Key:
[1] = target: T1, MBP-UL42Δ340 (truncated UL42 …); experiment: fluorescence polarization competition; peptide A displaces labeled peptide E from 7 µM UL42, Hill equation
[2] = target: T1, MBP-UL42Δ340 (truncated UL42 …); experiment: fluorescence polarization; MBP-UL42 titrated (1 to 50 µM) into 1 nM labeled peptide, Hofstee transformation

| Binder | IC50 [1] | Kd [2] |
| --- | --- | --- |
| B1 | ~6 µM | – |
| B2 | – | 5 µM |
